Common to all, as to experiment: holdup assay
Holding throughout (parameters): key: below the threshold = too weak to quantify, mostly under pKd 3.1 to 4
Details in all cases: plain residues with an end cap or a label only (N-terminal biotin on a linker: ado-ado)

Experiment [1] has as its target T1, GRIP1_5, Q9Y3R0.
T1 sequence (Q9Y3R0 568-668, limits assumed, looked up): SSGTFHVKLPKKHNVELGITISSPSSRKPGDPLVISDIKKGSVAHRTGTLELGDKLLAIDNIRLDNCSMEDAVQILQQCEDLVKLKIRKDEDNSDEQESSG

The target of experiment [2] is T2, TJP3_3, O95049.
T2 sequence (O95049 375-456, limits assumed, looked up): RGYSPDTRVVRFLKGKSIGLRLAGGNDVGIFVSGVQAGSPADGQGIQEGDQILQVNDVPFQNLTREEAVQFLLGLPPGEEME

In experiment [3] the target is T3, FRMPD1, Q5SYB0.
T3 sequence (Q5SYB0 52-145, limits assumed, looked up): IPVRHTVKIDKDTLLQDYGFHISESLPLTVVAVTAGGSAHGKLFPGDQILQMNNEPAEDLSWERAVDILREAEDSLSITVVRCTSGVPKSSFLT

Experiment [4] concerns the target LIMK2, P53671.
Experiment [5] deals with PDZRN4_1, Q6ZMN7.
Experiment [6] concerns the target MAGI2_3, Q86UL8.
The target in experiment [7] is MAGI2_2, Q86UL8.
Experiment [8] deals with T4, DFNB31_3, Q9P202.
T4 sequence (Q9P202 811-907, limits assumed, looked up): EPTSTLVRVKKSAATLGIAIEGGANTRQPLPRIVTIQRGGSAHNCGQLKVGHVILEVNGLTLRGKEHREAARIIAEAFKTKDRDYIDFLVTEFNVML

The target in experiment [9] is T5, CARD11, Q9BXL7.
T5 sequence (Q9BXL7 662-765, limits assumed, looked up): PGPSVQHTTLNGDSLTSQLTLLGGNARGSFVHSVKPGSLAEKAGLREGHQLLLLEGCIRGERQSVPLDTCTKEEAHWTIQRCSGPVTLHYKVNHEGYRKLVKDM

Experiment [10] has as its target T6, TIAM2, Q8IVF5.
T6 sequence (Q8IVF5 885-986, limits assumed, looked up): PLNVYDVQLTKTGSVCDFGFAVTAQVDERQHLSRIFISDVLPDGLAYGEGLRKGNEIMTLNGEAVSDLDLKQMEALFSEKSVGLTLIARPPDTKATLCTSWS

The target in experiment [11] is T7, DFNB31_1, Q9P202.
T7 sequence (Q9P202 135-233, limits assumed, looked up): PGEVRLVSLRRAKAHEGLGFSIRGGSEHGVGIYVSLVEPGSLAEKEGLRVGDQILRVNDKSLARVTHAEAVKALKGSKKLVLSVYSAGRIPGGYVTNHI

Experiment [12] deals with T8, DVL3, Q92997.
T8 sequence (Q92997 244-331, limits assumed, looked up): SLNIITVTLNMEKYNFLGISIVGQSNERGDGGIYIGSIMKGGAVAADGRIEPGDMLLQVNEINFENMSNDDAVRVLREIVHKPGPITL

The target of experiment [13] is NHERF4_4, Q86UT5.
The target of experiment [14] is HTRA1, Q92743.
Experiment [15] deals with T9, LIN7C, Q9NUP9.
T9 sequence (Q9NUP9 88-185, limits assumed, looked up): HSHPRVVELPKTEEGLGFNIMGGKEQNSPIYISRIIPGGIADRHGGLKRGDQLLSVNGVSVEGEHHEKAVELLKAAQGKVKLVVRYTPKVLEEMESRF

The target in experiment [16] is T10, APBA1_1, Q02410.
T10 sequence (Q02410 651-752, limits assumed, looked up): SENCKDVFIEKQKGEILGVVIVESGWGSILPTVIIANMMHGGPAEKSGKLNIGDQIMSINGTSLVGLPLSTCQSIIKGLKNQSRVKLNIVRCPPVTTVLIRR

Experiment [17] concerns the target T11, SHANK1, Q9Y566.
T11 sequence (Q9Y566 658-767, limits assumed, looked up): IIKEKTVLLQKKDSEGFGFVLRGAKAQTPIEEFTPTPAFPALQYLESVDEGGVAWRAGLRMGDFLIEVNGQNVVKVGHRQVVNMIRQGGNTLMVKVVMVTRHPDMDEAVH

For experiment [18], the target named is T12, DFNB31_2, Q9P202.
T12 sequence (Q9P202 274-371, limits assumed, looked up): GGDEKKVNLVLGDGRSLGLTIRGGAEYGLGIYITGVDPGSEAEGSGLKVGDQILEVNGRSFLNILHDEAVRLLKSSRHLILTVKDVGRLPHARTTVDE

Experiment [19] deals with DLG1_2, Q12959.
Experiment [20] addresses T13, TX1BP3, O14907.
T13 sequence (O14907 10-122, limits assumed, looked up): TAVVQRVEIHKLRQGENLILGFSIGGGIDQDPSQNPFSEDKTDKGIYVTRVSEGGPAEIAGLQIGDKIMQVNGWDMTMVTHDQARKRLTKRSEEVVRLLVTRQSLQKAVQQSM

Experiment [21] has as its target T14, HTRA4, P83105.
T14 sequence (P83105 378-476, limits assumed, looked up): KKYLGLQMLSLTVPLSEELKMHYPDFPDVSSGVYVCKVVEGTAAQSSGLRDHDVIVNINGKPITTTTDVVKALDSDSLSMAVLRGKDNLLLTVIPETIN

The target in experiment [22] is T15, RAPGEF6, Q8TEU7.
T15 sequence (Q8TEU7 525-625, limits assumed, looked up): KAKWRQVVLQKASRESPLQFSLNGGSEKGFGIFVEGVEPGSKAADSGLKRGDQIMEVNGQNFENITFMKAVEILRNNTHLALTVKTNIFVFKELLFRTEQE

Broadly, the pKd is the negative decadic logarithm of the Kd, by convention in mol/L.

Sequence of MAGI2_3, Q86UL8 (Q86UL8 600-682): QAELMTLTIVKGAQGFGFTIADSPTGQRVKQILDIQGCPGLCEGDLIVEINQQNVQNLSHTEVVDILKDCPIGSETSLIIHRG
Sequence of MAGI2_2, Q86UL8 (Q86UL8 410-522): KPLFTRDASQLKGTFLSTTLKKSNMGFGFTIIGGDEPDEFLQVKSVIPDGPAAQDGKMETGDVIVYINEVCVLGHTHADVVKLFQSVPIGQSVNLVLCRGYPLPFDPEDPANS
Sequence of HTRA1, Q92743 (Q92743 360-477): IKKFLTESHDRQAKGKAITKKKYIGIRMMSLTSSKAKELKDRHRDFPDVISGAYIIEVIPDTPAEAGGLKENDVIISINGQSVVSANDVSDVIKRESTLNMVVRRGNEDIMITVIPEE
Sequence of DLG1_2, Q12959 (Q12959 314-412): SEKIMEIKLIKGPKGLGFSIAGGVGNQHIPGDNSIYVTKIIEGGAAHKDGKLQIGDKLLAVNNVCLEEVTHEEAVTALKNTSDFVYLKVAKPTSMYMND
Sequence of NHERF4_4, Q86UT5 (Q86UT5 464-550): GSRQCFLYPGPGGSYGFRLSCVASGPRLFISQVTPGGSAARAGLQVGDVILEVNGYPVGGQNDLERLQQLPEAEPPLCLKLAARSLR
Sequence of LIMK2, P53671 (P53671 143-248): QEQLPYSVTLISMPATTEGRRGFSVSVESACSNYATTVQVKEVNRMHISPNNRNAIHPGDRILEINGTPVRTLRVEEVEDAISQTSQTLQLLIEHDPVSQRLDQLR
Sequence of PDZRN4_1, Q6ZMN7 (Q6ZMN7 213-318): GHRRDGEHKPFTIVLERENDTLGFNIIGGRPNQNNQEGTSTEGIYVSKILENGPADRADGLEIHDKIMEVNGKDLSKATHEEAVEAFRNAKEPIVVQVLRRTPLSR

Regarding IDESKKEWLI [CNTNAP2, Q9UHC6], the pKd entry in [1] was “below the threshold”; in [2], “below the threshold”; in [3], “below the threshold”; in experiment [4] it was “below the threshold”; in experiment [5], “below the threshold”; in experiment [6], 3.5. Further, the pKd in experiment [7] is 3.78; in experiment [8] it was 3.52; in experiment [9], “below the threshold”; in experiment [10] it was 3.81; in [11], “below the threshold”; in [12], 3.85. The pKd entry in experiment [13] is “below the threshold”; in experiment [14], 5.31; in [15], “below the threshold”; in experiment [16], “below the threshold”; in [17] it was “below the threshold”; in experiment [18], “below the threshold”. Moreover, the pKd result in experiment [19], in experiment [20], in [21] and in [22] was “below the threshold” each time.

Consider SRSVVESDEL [MYPN, Q86TC9], for which the pKd result in experiment [1], in experiment [2], in experiment [3], in experiment [4], in [5] and in experiment [6] was “below the threshold” throughout. In addition, the pKd entry in [7], in [8], in experiment [9], in experiment [10], in experiment [11] and in experiment [12] was “below the threshold” each time. For the same molecule, the pKd result was “below the threshold” in experiment [13]; 3.69 in [14]; “below the threshold” in [15]; “below the threshold” in [16]; “below the threshold” in [17]; “below the threshold” in [18]. The pKd result in experiment [19], in [20], in [21] and in [22] was “below the threshold” each time.

Consider DTKNYKQTSV [CRIPT, Q9P021], for which the pKd entry in experiment [1] is “below the threshold”; in experiment [2], “below the threshold”; in experiment [3], “below the threshold”; in experiment [4], “below the threshold”; in experiment [5] it was 4.12; in experiment [6], 3.94. The pKd in experiment [7] is 4.55; in experiment [8], “below the threshold”; in [9], “below the threshold”; in experiment [10] it was “below the threshold”; in [11] it was 4.32; in experiment [12] it was “below the threshold”. In addition, the pKd entry in experiment [13] was “below the threshold”; in [14] it was “below the threshold”; in [15] it was 3.5; in experiment [16], “below the threshold”; in experiment [17] it was “below the threshold”; in experiment [18], 3.74. Moreover, the pKd in [19] is 5.07; in experiment [20], 5.4; in [21], 3.95; in experiment [22], “below the threshold”.

Turning to KRPEMTSSSV [MUC3A, MUC3B, Q02505;Q9H195], the pKd entry is “below the threshold” in [1]; “below the threshold” in experiment [2]; “below the threshold” in [5]; 3.65 in [7]; “below the threshold” in experiment [8]; 1.75 in experiment [9]. Further, the pKd in experiment [10] was 1.96; in experiment [12] it was “below the threshold”; in experiment [14] it was “below the threshold”; in experiment [16], “below the threshold”; in [17] it was 3.92; in experiment [18], “below the threshold”. In addition, in [21], the pKd result was “below the threshold”.

Turning to KSRVAFFEEL [NF2, P35240;P35240-1], the negative-log Kd (pKd) result in experiment [2], in experiment [3], in experiment [4], in experiment [5], in experiment [7] and in experiment [8] was “below the threshold” in each case. The pKd result in experiment [9] is “below the threshold”; in [10], “below the threshold”; in experiment [13], “below the threshold”; in experiment [14], 4.51; in experiment [15] it was “below the threshold”; in [16], “below the threshold”. Moreover, the pKd result in experiment [17] was “below the threshold”; in [18], “below the threshold”; in experiment [20], 4.34; in experiment [21] it was 4.4; in [22] it was “below the threshold”.

Source of the values: PMC9482650, “Quantitative fragmentomics allow affinity mapping of interactomes” (Nature Communications, 2022).
